According to US8304206:
Several values for one entry are separate records, joined by “and”; a condition that tells them apart may be missing. Equal values may be shown once.

Molecular target: T1, SIRT1 Acetylated Peptide Substrate Ac-EE-K(biotin)-GQSTSSHSK(Ac)NleSTEG-K(5TMR)-EE-NH2 (SEQ ID NO: 34)
T1 chain: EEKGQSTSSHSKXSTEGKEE

B1: SIRT1 protein (human SIRT1 enzyme), expressed in E. coli BL21(DE3) as an N-terminal His-tag fusion protein (protein)
chain: MADEAALALQPGGSPSAAGADREAASSPAGEPLRKRPRRDGPGLERSPGEPGGAAPEREVPAAARGCPGAAAAALWREAEAEAAAAGGEQEAQATAAAGEGDNGPGLQGPSREPPLADNLYDEDDDDEGEEEEEAAAAAIGYRDNLLFGDEIITNGFHSCESDEEDRASHASSSDWTPRPRIGPYTFVQQHLMIGTDPRTILKDLLPETIPPPELDDMTLWQIVINILSEPPKRKKRKDINTIEDAVKLLQECKKIIVLTGAGVSVSCGIPDFRSRDGIYARLAVDFPDLPDPQAMFDIEYFRKDPRPFFKFAKEIYPGQFQPSLCHKFIALSDKEGKLLRNYTQNIDTLEQVAGIQRIIQCHGSFATASCLICKYKVDCEAVRGDIFNQVVPRCPRCPADEPLAIMKPEIVFFGENLPEQFHRAMKYDKDEVDLLIVIGSSLKVRPVALIPSSIPHEVPQILINREPLPHLHFDVELLGDCDVIINELCHRLGGEYAKLCCNPVKLSEITEKPPRTQKELAYLSELPPTPLHVSEDSSSPERTSPPDSSVIVTLLDQAAKSNDDLDVSESKGCMEEKPQEVQTSRNVESIAEQMENPDLKNVGSSTGEKNERTSVAGTVRKCWPNRVAKEQISRRLDGNQYLFLPPNRYIFHGAEVYSDSEDDVLSSSSCGSNSDSGTCQSPSLEEPMEDESEIEEFYNGLEDEPDVPERAGGAGFGTDGDDQEAINEAISVKQEVTDMNYPSNKS
- Km (mass spectrometry deacetylase assay, replicate plate): 11.2 µM and 11.9 µM
- Peptide Km (mean of 2 replicate plates, mass spectrometry assay): 11.6 µM
- deacetylation of the peptide (conversion to deacetylated product, mass spectrometry): SIRT1 deacetylation activity is dependent on both enzyme concentration and incubation time. Concentrations of enzyme between 5-20 nM result in product formation well above background.
- decrease of Km for peptide substrate at 1.2 µM resveratrol (against DMSO vehicle): 2%
- decrease of Km for peptide substrate at 3.7 µM resveratrol (against DMSO vehicle): 14%
- decrease of Km for peptide substrate at 11 µM resveratrol (against DMSO vehicle): 14%
- decrease of Km for peptide substrate at 33 µM resveratrol (against DMSO vehicle): 32%
- decrease of Km for peptide substrate at 100 µM resveratrol (against DMSO vehicle): 46%
